Results published in patent US20180258158A1 (Bristol-Myers Squibb, published 2018).
Substitutions are numbered along the chain they refer to. Names may count otherwise.

Assays:
[1] = target: T1, mouse serum albumin (MSA), full length (mouse, UniProt P07724 25-608); assay: direct binding ELISA, coated MSA, anti-His-HRP; set-up: unit not given here
T1 construct: mature; Immobilized on CM5 chip (SPR) or coated on plates (ELISA); also called mouse albumin; murine serum albumin
Target sequence in this assay (P07724 25-608): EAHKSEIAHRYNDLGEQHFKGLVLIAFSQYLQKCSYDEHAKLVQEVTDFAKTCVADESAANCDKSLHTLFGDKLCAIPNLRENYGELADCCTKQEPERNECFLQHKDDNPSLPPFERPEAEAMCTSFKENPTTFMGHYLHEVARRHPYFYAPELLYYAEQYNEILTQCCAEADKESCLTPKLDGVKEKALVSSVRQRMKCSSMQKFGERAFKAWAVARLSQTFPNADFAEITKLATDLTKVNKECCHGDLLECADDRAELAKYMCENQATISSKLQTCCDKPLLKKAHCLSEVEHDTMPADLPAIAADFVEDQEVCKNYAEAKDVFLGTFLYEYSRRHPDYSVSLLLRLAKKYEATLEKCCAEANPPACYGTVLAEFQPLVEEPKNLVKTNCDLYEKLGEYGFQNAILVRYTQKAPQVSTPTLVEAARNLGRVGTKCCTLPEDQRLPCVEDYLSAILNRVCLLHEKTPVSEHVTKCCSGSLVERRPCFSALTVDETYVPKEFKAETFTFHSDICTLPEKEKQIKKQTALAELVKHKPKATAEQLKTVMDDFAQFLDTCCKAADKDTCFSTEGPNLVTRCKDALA

[2] = target: T2, human serum albumin (HSA), full length (human, UniProt P02768 25-609); assay: not stated; lower end of the range 3-6 nM
T2 construct: mature; Immobilized on CM5 chip (SPR) or coated on plates (ELISA)

[3] = target: T2, human serum albumin (HSA), full length; assay: SPR off-rate, immobilized HSA, 500 nM Adnectin, 25 C
Method: (§1) Measurements were conducted by SPR and ELISA. SPR was conducted as follows. Full length HSA or mouse albumin was immobilized on a Biacore T series CM5 chip at 15 ug/mL in 10 mM acetate buffer (pH 5.0) buffer using standard NHS/EDC coupling, to a surface density of approximately 1000-1100 RU. For off-rate measurements at 25° C., PKE Adnectins were applied as analytes at 500 nM in HBS-P+(0.01 M HEPES pH 7.4, 0.15 M NaCl, 0.005% v/v Surfactant P20) running buffer at a flow rate of 20ul/min for 120 s over the immobilized albumins, followed by 800 s for dissociation. […] Regeneration of the chip surface between cycles was accomplished with two 30 second pulses of 10 mM Glycine, pH 2.0. Kinetic traces of reference-subtracted sensorgrams were fit to a 1:1 binding model for affinity using the Biaevaluation software. Only the dissociation phase was fit for determination of off-rates.

[4] = target: T2, human serum albumin (HSA), full length; assay: SPR, immobilized HSA, 500 nM Adnectin, 25 C
Method: as §1

[5] = target: T1, mouse serum albumin (MSA), full length; assay: SPR, immobilized MSA, 500 nM Adnectin, 25 C
Method: as §1

[6] = target: T1, mouse serum albumin (MSA), full length; assay: SPR kinetics, immobilized albumin, 1:1 fit, 37 C
Method: as §1, with “The SPR” for “Measurements were conducted by SPR and ELISA. SPR”, “length human, mouse, rat and cynomolgus monkey serum” for “length HSA or mouse”, “albumin were” for “albumin was”

[7] = target: T2, human serum albumin (HSA), full length; assay: SPR kinetics, immobilized albumin, 1:1 fit, 37 C
Method: as §1, with “The SPR” for “Measurements were conducted by SPR and ELISA. SPR”, “length human, mouse, rat and cynomolgus monkey serum” for “length HSA or mouse”, “albumin were” for “albumin was”

[8] = target: T3, rat serum albumin (rat SA), full length (rat, UniProt P02770 25-608); assay: SPR kinetics, immobilized albumin, 1:1 fit, 37 C
T3 construct: mature; Immobilized on CM5 chip (SPR); also called RSA
Method: as §1, with “The SPR” for “Measurements were conducted by SPR and ELISA. SPR”, “length human, mouse, rat and cynomolgus monkey serum” for “length HSA or mouse”, “albumin were” for “albumin was”

[9] = target: T4, cynomolgus monkey serum albumin (cynoSA), full length (cynomolgus monkey, UniProt A2V9Z4 25-608); assay: SPR kinetics, immobilized albumin, 1:1 fit, 37 C
T4 construct: mature; Immobilized on CM5 chip (SPR); the cynoSA experiment used a different Biacore chip; also called CySA
Method: as §1, with “The SPR” for “Measurements were conducted by SPR and ELISA. SPR”, “length human, mouse, rat and cynomolgus monkey serum” for “length HSA or mouse”, “albumin were” for “albumin was”

[10] = target: T1, mouse serum albumin (MSA), full length; assay: SPR kinetics (Biacore, CM5): albumin immobilised, Adnectin concentration series as analyte, 37 C, 1:1 binding fit; curve Fc=3-1 [panel MSA]
Method: as §1, with “The SPR” for “Measurements were conducted by SPR and ELISA. SPR”, “length human, mouse, rat and cynomolgus monkey serum” for “length HSA or mouse”, “albumin were” for “albumin was”

[11] = target: T4, cynomolgus monkey serum albumin …; assay: SPR kinetics (Biacore, CM5): ligand '15ug/ml CynoSA in Acetate 5.0' immobilised, Adnectin concentration series as analyte, 37 C, 1:1 binding fit; curve Fc=2-1 [panel Cyno SA]
Method: as §1, with “The SPR” for “Measurements were conducted by SPR and ELISA. SPR”, “length human, mouse, rat and cynomolgus monkey serum” for “length HSA or mouse”, “albumin were” for “albumin was”

[12] = target: T2, human serum albumin (HSA), full length; assay: not stated; upper end of the range 3-6 nM
[13] = target: T3, rat serum albumin (rat SA), full length; assay: SPR kinetics (Biacore, CM5): albumin immobilised, Adnectin concentration series as analyte, 37 C, 1:1 binding fit; curve Fc=4-1 [panel Rat SA]
Method: as §1, with “The SPR” for “Measurements were conducted by SPR and ELISA. SPR”, “length human, mouse, rat and cynomolgus monkey serum” for “length HSA or mouse”, “albumin were” for “albumin was”

[14] = target: T2, human serum albumin (HSA), full length; assay: SPR kinetics (Biacore, CM5): albumin immobilised, Adnectin concentration series as analyte, 37 C, 1:1 binding fit; curve Fc=2-1 [panel HSA]
Method: as §1, with “The SPR” for “Measurements were conducted by SPR and ELISA. SPR”, “length human, mouse, rat and cynomolgus monkey serum” for “length HSA or mouse”, “albumin were” for “albumin was”

[15] = target: T1, mouse serum albumin (MSA), full length; assay: SPR off-rate, immobilized MSA, 500 nM Adnectin, 25 C
Method: as §1

[16] = target: T1, mouse serum albumin (MSA), full length; assay: direct binding ELISA, coated MSA, anti-His-HRP
Method: Direct binding ELISA assays were conducted as follows. Full length human and murine serum albumin at 10ug/ml in PBS were coated on Nunc Maxisorp plates overnight at 4° C. Plates were blocked in casein/PBS buffer. PKE Adnectins were allowed to bind over a 4-point concentration range of 0.032-4 uM for HSA and 0.008-1 uM for MSA. Bound Adnectin was detected by anti-His antibody conjugated with HRP (horseradish peroxidase) diluted 1:1500 in casein/PBS. Plates were developed with TMB substrate and absorbance read at 450 nm. Adnectins were binned as high, medium and low affinity binders based on the observed Ymax of the concentration response curves.

[17] = target: T4, cynomolgus monkey serum albumin …; assay: SPR kinetics (Biacore, CM5): ligand '15ug/ml Cyno SA in Acetate 5.0' immobilised, Adnectin concentration series as analyte, 37 C, 1:1 binding fit; curve Fc=2-1 [panel Cyno SA]
Method: as §1, with “The SPR” for “Measurements were conducted by SPR and ELISA. SPR”, “length human, mouse, rat and cynomolgus monkey serum” for “length HSA or mouse”, “albumin were” for “albumin was”

[18] = target: T1, mouse serum albumin (MSA), full length; assay: SPR off-rate ratio to parent ADX_7016_A01, MSA, 25 C
Method: as §1

[19] = target: T2, human serum albumin (HSA), full length; assay: SPR off-rate ratio to parent ADX_7016_A01, HSA, 25 C
Method: as §1

[20] = target: T4, cynomolgus monkey serum albumin …; assay: SPR kinetics (Biacore, CM5): ligand '15ug/ml CynoSA in Acetate5.0' immobilised, Adnectin concentration series as analyte, 37 C, 1:1 binding model; curve Fc=2-1 [panel Cyno SA]
Method: as §1, with “The SPR” for “Measurements were conducted by SPR and ELISA. SPR”, “length human, mouse, rat and cynomolgus monkey serum” for “length HSA or mouse”, “albumin were” for “albumin was”

[21] = target: T4, cynomolgus monkey serum albumin …; assay: SPR kinetics (Biacore, CM5): ligand '15ug/ml CynoSA in Acetate 5.0' immobilised, Adnectin concentration series as analyte, 37 C, 1:1 binding model; curve Fc=2-1 [panel Cyno SA]
Method: as §1, with “The SPR” for “Measurements were conducted by SPR and ELISA. SPR”, “length human, mouse, rat and cynomolgus monkey serum” for “length HSA or mouse”, “albumin were” for “albumin was”

T3 sequence (P02770 25-608): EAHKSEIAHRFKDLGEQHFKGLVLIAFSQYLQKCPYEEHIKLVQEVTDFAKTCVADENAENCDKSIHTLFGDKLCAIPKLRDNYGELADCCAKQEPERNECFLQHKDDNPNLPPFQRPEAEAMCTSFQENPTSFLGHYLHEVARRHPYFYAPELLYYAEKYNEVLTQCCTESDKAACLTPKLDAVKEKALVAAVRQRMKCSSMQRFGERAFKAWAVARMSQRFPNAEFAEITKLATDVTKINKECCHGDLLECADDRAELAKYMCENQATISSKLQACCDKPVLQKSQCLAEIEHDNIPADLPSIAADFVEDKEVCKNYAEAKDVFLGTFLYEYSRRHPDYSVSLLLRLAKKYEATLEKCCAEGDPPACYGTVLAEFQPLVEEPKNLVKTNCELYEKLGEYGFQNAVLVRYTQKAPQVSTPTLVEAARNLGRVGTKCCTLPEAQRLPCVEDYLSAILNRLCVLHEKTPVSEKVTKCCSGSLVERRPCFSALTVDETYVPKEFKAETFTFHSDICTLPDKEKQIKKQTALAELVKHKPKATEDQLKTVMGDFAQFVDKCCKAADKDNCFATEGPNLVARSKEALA
T4 sequence (A2V9Z4 25-608): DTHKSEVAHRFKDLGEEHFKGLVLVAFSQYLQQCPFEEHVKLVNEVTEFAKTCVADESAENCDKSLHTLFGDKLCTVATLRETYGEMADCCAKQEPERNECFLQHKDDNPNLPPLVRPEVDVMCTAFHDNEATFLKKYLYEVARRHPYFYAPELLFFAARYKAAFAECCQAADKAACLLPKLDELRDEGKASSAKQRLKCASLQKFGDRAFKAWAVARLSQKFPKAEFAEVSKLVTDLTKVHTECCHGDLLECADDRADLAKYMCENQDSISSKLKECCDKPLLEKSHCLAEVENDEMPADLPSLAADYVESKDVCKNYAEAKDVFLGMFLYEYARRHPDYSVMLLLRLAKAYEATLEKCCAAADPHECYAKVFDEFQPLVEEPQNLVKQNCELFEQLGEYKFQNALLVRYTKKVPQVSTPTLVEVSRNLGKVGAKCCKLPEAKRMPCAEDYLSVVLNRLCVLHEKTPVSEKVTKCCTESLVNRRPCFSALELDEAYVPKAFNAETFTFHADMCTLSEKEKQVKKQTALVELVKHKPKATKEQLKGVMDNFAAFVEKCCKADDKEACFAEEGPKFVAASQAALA
T2 sequence (P02768 25-609): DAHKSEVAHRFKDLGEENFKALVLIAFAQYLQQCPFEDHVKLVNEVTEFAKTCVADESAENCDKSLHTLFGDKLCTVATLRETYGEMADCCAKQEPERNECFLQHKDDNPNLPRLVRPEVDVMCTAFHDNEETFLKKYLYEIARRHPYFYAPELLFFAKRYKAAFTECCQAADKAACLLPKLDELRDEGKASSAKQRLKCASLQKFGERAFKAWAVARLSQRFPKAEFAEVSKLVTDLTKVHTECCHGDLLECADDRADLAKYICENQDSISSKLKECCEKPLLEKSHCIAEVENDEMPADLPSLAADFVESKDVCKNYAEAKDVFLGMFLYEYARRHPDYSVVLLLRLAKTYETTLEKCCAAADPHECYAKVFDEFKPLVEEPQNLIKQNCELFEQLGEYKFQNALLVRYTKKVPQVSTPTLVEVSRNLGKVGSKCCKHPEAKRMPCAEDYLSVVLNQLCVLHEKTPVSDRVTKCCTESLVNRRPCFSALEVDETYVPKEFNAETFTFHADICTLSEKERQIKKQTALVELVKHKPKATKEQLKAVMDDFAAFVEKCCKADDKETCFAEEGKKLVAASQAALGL

B1: ADX_6734_A02 (I43A/Y44E) (designed binder)
chain: MGVSDVPRDLEVVAATPTSLLISWDAPAVTVRYYRITYGREVQKYSDLGPLYAEQEFTVPGSKSTATISGLKPGVDYTITVYAVTGSGESPASSKPISINYRTEIDKPSQHHHHHH
MSA DB ELISA (OD450) Ymax obs [1]: 100
MSA DB ELISA (OD450) Ymin obs [1]: 3

B2: ADX_7016_A01 (parent PKE2 Adnectin) (designed binder)
chain: B1 chain with A53I, E54Y
notes: N-terminal Met may be cleaved; also called 2629_E06; ADX_2629_E06
Kd [2]: 3 to 6 nM
koff [3]: 0.000269 s⁻¹
HSA Binding (RU) [4]: 54 RU
MSA Binding (RU) [5]: 95 RU
Kd [6]: 2.8 nM
koff [6]: 0.000668 s⁻¹
kon [6]: 237000 M⁻¹ s⁻¹
Kd [7]: 6.2 nM
koff [7]: 0.000378 s⁻¹
kon [7]: 61200 M⁻¹ s⁻¹
Kd [8]: 8 nM
koff [8]: 0.00143 s⁻¹
kon [8]: 180000 M⁻¹ s⁻¹
Kd [9]: 4.4 nM
koff [9]: 0.000391 s⁻¹
kon [9]: 89400 M⁻¹ s⁻¹
koff [10]: 0.000668 s⁻¹
kon [10]: 237000 M⁻¹ s⁻¹
Kd [11]: 4.38 nM
koff [11]: 0.000391 s⁻¹
kon [11]: 89400 M⁻¹ s⁻¹
Kd [12]: 3 to 6 nM
koff [13]: 0.00143 s⁻¹
kon [13]: 180000 M⁻¹ s⁻¹
koff [14]: 0.000378 s⁻¹
kon [14]: 61200 M⁻¹ s⁻¹
koff [15]: 0.000428 s⁻¹

B3: ADX_7016_C03 (Y44Q) (designed binder)
chain: B1 chain with A53I, E54Q
notes: Full His6-tagged entry; also called 6727_B03
MSA DB ELISA YMIN OBS (OD450) [16]: 1 OD450
koff [3]: 0.0214 s⁻¹
HSA Binding (RU) [4]: 14 RU
Kd [17]: 1080 nM
koff [17]: 0.0444 s⁻¹
kon [17]: 41200 M⁻¹ s⁻¹
MSA Binding (RU) [5]: 33 RU
Kd [6]: 265 nM
koff [6]: 0.0305 s⁻¹
kon [6]: 115000 M⁻¹ s⁻¹
Kd [7]: 889 nM
koff [7]: 0.0285 s⁻¹
kon [7]: 32100 M⁻¹ s⁻¹
Kd [8]: 1340 nM
koff [8]: 0.119 s⁻¹
kon [8]: 89100 M⁻¹ s⁻¹
Kd [9]: 1080 nM
koff [9]: 0.0444 s⁻¹
kon [9]: 41200 M⁻¹ s⁻¹
MSA kd/Parent kd [18]: 41.9
koff [15]: 0.0179 s⁻¹
HSA kd/Parent kd [19]: 79.4

B4: ADX_7016_G01 (Y44S) (designed binder)
chain: B1 chain with A53I, E54S
notes: Full His6-tagged entry; also called 6727_G02
koff [3]: 0.0015 s⁻¹
Kd [20]: 68.1 nM
koff [20]: 0.00426 s⁻¹
kon [20]: 62500 M⁻¹ s⁻¹
HSA Binding (RU) [4]: 33 RU
MSA Binding (RU) [5]: 64 RU
Kd [6]: 26.8 nM
koff [6]: 0.00629 s⁻¹
kon [6]: 235000 M⁻¹ s⁻¹
Kd [7]: 83.7 nM
koff [7]: 0.0032 s⁻¹
kon [7]: 38200 M⁻¹ s⁻¹
Kd [8]: 104 nM
koff [8]: 0.0346 s⁻¹
kon [8]: 331000 M⁻¹ s⁻¹
Kd [9]: 68.1 nM
koff [9]: 0.00426 s⁻¹
kon [9]: 62500 M⁻¹ s⁻¹
MSA kd/Parent kd [18]: 5
koff [15]: 0.00213 s⁻¹
HSA kd/Parent kd [19]: 5.6

B5: ADX_7016_E02 (L38T) (designed binder)
chain: B1 chain with L48T, A53I, E54Y
notes: Full His6-tagged entry; also called 6727_E08
MSA DB ELISA YMIN OBS (OD450) [16]: 1 OD450
koff [3]: 0.00815 s⁻¹
HSA Binding (RU) [4]: 25 RU
MSA Binding (RU) [5]: 30 RU
Kd [21]: 1430 nM
koff [21]: 0.171 s⁻¹
kon [21]: 119000 M⁻¹ s⁻¹
Kd [6]: 502 nM
koff [6]: 0.0343 s⁻¹
kon [6]: 68400 M⁻¹ s⁻¹
Kd [7]: 666 nM
koff [7]: 0.0161 s⁻¹
kon [7]: 24200 M⁻¹ s⁻¹
Kd [8]: 1130 nM
koff [8]: 0.0558 s⁻¹
kon [8]: 49400 M⁻¹ s⁻¹
Kd [9]: 1430 nM
koff [9]: 0.171 s⁻¹
kon [9]: 119000 M⁻¹ s⁻¹
MSA kd/Parent kd [18]: 57.8
koff [15]: 0.0248 s⁻¹
HSA kd/Parent kd [19]: 30.3
